# Source: patent US9823254B2, “Reversible chemoenzymatic labeling of native and fusion carrier protein motifs” (The Regents of the University of California, priority 2012, dated 2017)
# Legend:
# E. coli AcpP = E. coli AcpP (Escherichia coli, UniProt P0A6A8); conditions: FAS; crypto-CP (coumarin-PPant), overnight, 37° C., 1 μM AcpH
# Protocol: (§1) Unless otherwise noted, all coumarin-PPant labeling proceeded as follows: apo-carrier protein or peptide at 50-200 μM were labeled in 50 mM Na-HEPES pH 7.5, 10 mM MgCl2, 8 mM ATP, 0.1 μM MBP-CoaA/D/E, 0.1 μM native Sfp, and 1.1 equivalents of coumarin-pantetheine at 37° C. overnight. Crypto-protein samples were repurified using standard IMAC techniques in pH 8 lysis buffer with Ni-NTA resin, and spin-concentrated/buffer exchanged to remove imidazole and concentrate with 0.5 mL 3 kDa MWCO cellulose filters. Crypto-peptide samples were purified with HPLC, lyophilized, and redissolved in 50 mM TrisCl pH 8.0 prior to analysis.
# (§2) Following AcpH treatment, an equal volume of 2×SDS-PAGE loading dye was added to crypto-carrier proteins samples and heated 5 min at 90° C., and run on 12% or 15% SDS-PAGE. Gels were fixed in 50/40/10% water/methanol/acetic acid for 30 minutes, and washed with water three times before UV imaging. Holo-carrier protein reactions were analyzed with Urea-PAGE as previously described.^6 All protein gels were Coomassie stained for evaluating total protein. Crypto-peptides were evaluated on Urea-PAGE, and were imaged immediately after running with no gel fixing.
# P. aeruginosa AcpP = P. aeruginosa AcpP (Pseudomonas aeruginosa, UniProt O54439); conditions: FAS; crypto-CP (coumarin-PPant), overnight, 37° C., 1 μM AcpH
# Protocol: as §1, §2
# P. syringae SyrB1 = P. syringae SyrB1 (Pseudomonas syringae pv. syringae, UniProt Q52400); experiment: AcpH qualitative CP activity, gel-based, crypto-CP; type: biochemical; conditions: NRPS; crypto-CP (coumarin-PPant), overnight, 37° C., 1 μM AcpH
# S. oneidensis AcpP = experiment: AcpH qualitative CP activity, holo-SoAcpP, Urea-PAGE; type: biochemical; conditions: FAS, Urea-PAGE gel-shift, shorter timescale
# E. coli ACP (AcpP) = E. coli ACP (AcpP) (Escherichia coli, UniProt P0A6A8); conditions: SDS-PAGE
# Protocol: 50 mL LB media supplemented with 25 μM calcium D-pantothenate, 50 mM D-glucose, and 50 μg/mL kanamycin utilized previously. Media was inoculated with 1 mL of overnight DK554 starter culture and grown to OD=0.4. IPTG was added at a concentration of 1 mM to the media and was shaken for 5 hours at 37° C. Media was centrifuged at 4000 rpm at 4° C. for 30 minutes to pellet cells. Cell pellets were resuspended in 25 mM TrisCl pH 7.5, 250 mM NaCl, 0.1 mg/mL lysozyme, 10 μM pepstatin, 10 μM leupeptin and passed twice through a French pressure device at 1000 psi. Removal of coumarin-pantetheine from ACP in 5 mL lysate used 10 μM MBP-AcpH fusion in 600 mL AcpH reaction buffer (50 mM TrisCl, pH 8.0, 100 mM NaCl, 10% glycerol, 15 mM MgCl2, 1 mM MnCl2) within a 3 kDa MWCO dialysis bag at 37° C. overnight.
# E. coli DK554 cell lysate with total protein concentration of approximately 2 mg/mL was added to the volume of premade 10×PPTase reaction buffer (500 mM Na-HEPES, 100 mM MgCl2, pH 7.4) that brought the total reaction concentration to 50 mM Na-HEPES pH 7.4, 10 mM MgCl2, 5 μM of coumarin-CoA, and 2 μM Sfp. […]
# P. agglomerans AdmA = experiment: AcpH qualitative CP activity, gel-based, crypto-CP; type: biochemical; conditions: NRPS; crypto-CP (coumarin-PPant), overnight, 37° C., 1 μM AcpH
# G. fujikuroi Pks4 = experiment: AcpH qualitative CP activity, gel-based, crypto-CP; type: biochemical; conditions: PKS; crypto-CP (coumarin-PPant), overnight, 37° C., 1 μM AcpH
# S. coelicolor ActACP = biological target: T1, S. coelicolor ActACP (Streptomyces coelicolor, UniProt Q02054); experiment: AcpH qualitative CP activity, gel-based, crypto-CP; type: biochemical; conditions: PKS; crypto-CP (coumarin-PPant), overnight, 37° C., 1 μM AcpH
# T1 construct: made in house
# T1 sequence (Q02054 whole entry, looked up): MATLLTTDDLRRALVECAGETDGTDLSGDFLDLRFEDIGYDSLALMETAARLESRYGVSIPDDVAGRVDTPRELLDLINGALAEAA
molecule,measurement,setting,value
"PaAcpH: acyl carrier protein hydrolase (AcpH) from P. aeruginosa PAO1, NP13 253043.1 (protein) MNYLAHLHLGGPQPAQLLGSLYGDFVKGRLQGQWPDEIERAIQLHRRIDAFTDSHPLVHAAKRRFPLERRRFAGVLLDVFFDHCLARDWNDYADEPLPQFVERVYGTLRTASPLPERLARIAPRMAAQDWLGSYREFAVLREVLGGMSRRLSRPHLLDGSWEELAQRYDDLSADFRAFYPQLQAFALSQR",AcpH qualitative CP activity,E. coli AcpP,YES
same,AcpH qualitative CP activity,P. aeruginosa AcpP,YES
same,AcpH qualitative CP activity,P. syringae SyrB1,no
same,AcpH qualitative CP activity,S. oneidensis AcpP,YES^†
same,removal of coumarin-PPT from ACP,"E. coli ACP (AcpP); coumarin-labeled E. coli DK554 lysate, 254 nm",uniformly removed
same,removal of rhodamine label from ACP,"E. coli ACP (AcpP); rhodamine-labeled ACP, 532 nm",can also be removed
same,AcpH qualitative CP activity,P. agglomerans AdmA,no
same,AcpH qualitative CP activity,G. fujikuroi Pks4,no
same,AcpH qualitative CP activity,S. coelicolor ActACP,no
